biological target: T1, FcγRIa (human, UniProt P12314 16-292); assay: SPR; vs GpH7-A5/GpH7-B3/GpL16-k0=100
T1 construct: extracellular domain; also called FcgRI; CD64
T1 sequence (P12314 16-292): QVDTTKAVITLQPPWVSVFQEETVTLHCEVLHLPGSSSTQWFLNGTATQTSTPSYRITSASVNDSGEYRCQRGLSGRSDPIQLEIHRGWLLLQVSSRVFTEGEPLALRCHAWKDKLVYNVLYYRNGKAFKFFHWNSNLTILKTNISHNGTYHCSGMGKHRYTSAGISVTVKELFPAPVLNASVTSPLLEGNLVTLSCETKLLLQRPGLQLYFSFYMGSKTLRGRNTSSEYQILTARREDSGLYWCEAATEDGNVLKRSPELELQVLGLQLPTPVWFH

He/Con_1a	Binder
103 % of control	GpH7-A5/GpH7-B3 variant E269_04F/GpL16-k0 (antibody, human IgG1, kappa, heterodimerized; also called He Ab E269_04F) heavy 1: not shown heavy 2: not shown light: DIVMTQSPLSLPVTPGEPASISCQASESLVHSNRNTYLHWYLQKPGQSPQLLIYKVSNRFSGVPDRFSGSGSGTDFTLKISRVEAEDVGVYYCSQNTHVPPTFGQGTKVEIERTVAAPSVFIFPPSDEQLKSGTASVVCLLNNFYPREAKVQWKVDNALQSGNSQESVTEQDSKDSTYSLSSTLTLSKADYEKHKVYACEVTHQGLSSPVTKSFNRGEC
106 % of control	GpH7-A5/GpH7-B3 variant A330_16H/GpL16-k0 (antibody, human IgG1, kappa, heterodimerized; also called He Ab A330_16H) heavy 1: not shown heavy 2: not shown light: DIVMTQSPLSLPVTPGEPASISCQASESLVHSNRNTYLHWYLQKPGQSPQLLIYKVSNRFSGVPDRFSGSGSGTDFTLKISRVEAEDVGVYYCSQNTHVPPTFGQGTKVEIERTVAAPSVFIFPPSDEQLKSGTASVVCLLNNFYPREAKVQWKVDNALQSGNSQESVTEQDSKDSTYSLSSTLTLSKADYEKHKVYACEVTHQGLSSPVTKSFNRGEC
104 % of control	GpH7-A5/GpH7-B3 variant E269_01G/GpL16-k0 (antibody, human IgG1, kappa, heterodimerized; also called He Ab E269_01G) heavy 1: not shown heavy 2: not shown light: DIVMTQSPLSLPVTPGEPASISCQASESLVHSNRNTYLHWYLQKPGQSPQLLIYKVSNRFSGVPDRFSGSGSGTDFTLKISRVEAEDVGVYYCSQNTHVPPTFGQGTKVEIERTVAAPSVFIFPPSDEQLKSGTASVVCLLNNFYPREAKVQWKVDNALQSGNSQESVTEQDSKDSTYSLSSTLTLSKADYEKHKVYACEVTHQGLSSPVTKSFNRGEC
103 % of control	GpH7-A5/GpH7-B3 variant A327_10E/GpL16-k0 (antibody, human IgG1, kappa, heterodimerized; also called He Ab A327_10E) heavy 1: not shown heavy 2: not shown light: DIVMTQSPLSLPVTPGEPASISCQASESLVHSNRNTYLHWYLQKPGQSPQLLIYKVSNRFSGVPDRFSGSGSGTDFTLKISRVEAEDVGVYYCSQNTHVPPTFGQGTKVEIERTVAAPSVFIFPPSDEQLKSGTASVVCLLNNFYPREAKVQWKVDNALQSGNSQESVTEQDSKDSTYSLSSTLTLSKADYEKHKVYACEVTHQGLSSPVTKSFNRGEC
103 % of control	GpH7-A5/GpH7-B3 variant E269_03V/GpL16-k0 (antibody, human IgG1, kappa, heterodimerized; also called He Ab E269_03V) heavy 1: not shown heavy 2: not shown light: DIVMTQSPLSLPVTPGEPASISCQASESLVHSNRNTYLHWYLQKPGQSPQLLIYKVSNRFSGVPDRFSGSGSGTDFTLKISRVEAEDVGVYYCSQNTHVPPTFGQGTKVEIERTVAAPSVFIFPPSDEQLKSGTASVVCLLNNFYPREAKVQWKVDNALQSGNSQESVTEQDSKDSTYSLSSTLTLSKADYEKHKVYACEVTHQGLSSPVTKSFNRGEC
109 % of control	GpH7-A5/GpH7-B3 variant A330_09D/GpL16-k0 (antibody, human IgG1, kappa, heterodimerized; also called He Ab A330_09D) heavy 1: not shown heavy 2: not shown light: DIVMTQSPLSLPVTPGEPASISCQASESLVHSNRNTYLHWYLQKPGQSPQLLIYKVSNRFSGVPDRFSGSGSGTDFTLKISRVEAEDVGVYYCSQNTHVPPTFGQGTKVEIERTVAAPSVFIFPPSDEQLKSGTASVVCLLNNFYPREAKVQWKVDNALQSGNSQESVTEQDSKDSTYSLSSTLTLSKADYEKHKVYACEVTHQGLSSPVTKSFNRGEC
103 % of control	GpH7-A5/GpH7-B3 variant A327_09D/GpL16-k0 (antibody, human IgG1, kappa, heterodimerized; also called He Ab A327_09D) heavy 1: not shown heavy 2: not shown light: DIVMTQSPLSLPVTPGEPASISCQASESLVHSNRNTYLHWYLQKPGQSPQLLIYKVSNRFSGVPDRFSGSGSGTDFTLKISRVEAEDVGVYYCSQNTHVPPTFGQGTKVEIERTVAAPSVFIFPPSDEQLKSGTASVVCLLNNFYPREAKVQWKVDNALQSGNSQESVTEQDSKDSTYSLSSTLTLSKADYEKHKVYACEVTHQGLSSPVTKSFNRGEC
103 % of control	GpH7-A5/GpH7-B3 variant A330_11K/GpL16-k0 (antibody, human IgG1, kappa, heterodimerized; also called He Ab A330_11K) heavy 1: not shown heavy 2: not shown light: DIVMTQSPLSLPVTPGEPASISCQASESLVHSNRNTYLHWYLQKPGQSPQLLIYKVSNRFSGVPDRFSGSGSGTDFTLKISRVEAEDVGVYYCSQNTHVPPTFGQGTKVEIERTVAAPSVFIFPPSDEQLKSGTASVVCLLNNFYPREAKVQWKVDNALQSGNSQESVTEQDSKDSTYSLSSTLTLSKADYEKHKVYACEVTHQGLSSPVTKSFNRGEC
103 % of control	GpH7-A5/GpH7-B3 variant A327_06M/GpL16-k0 (antibody, human IgG1, kappa, heterodimerized; also called He Ab A327_06M) heavy 1: not shown heavy 2: not shown light: DIVMTQSPLSLPVTPGEPASISCQASESLVHSNRNTYLHWYLQKPGQSPQLLIYKVSNRFSGVPDRFSGSGSGTDFTLKISRVEAEDVGVYYCSQNTHVPPTFGQGTKVEIERTVAAPSVFIFPPSDEQLKSGTASVVCLLNNFYPREAKVQWKVDNALQSGNSQESVTEQDSKDSTYSLSSTLTLSKADYEKHKVYACEVTHQGLSSPVTKSFNRGEC
104 % of control	GpH7-A5/GpH7-B3 variant A327_07I/GpL16-k0 (antibody, human IgG1, kappa, heterodimerized; also called He Ab A327_07I) heavy 1: not shown heavy 2: not shown light: DIVMTQSPLSLPVTPGEPASISCQASESLVHSNRNTYLHWYLQKPGQSPQLLIYKVSNRFSGVPDRFSGSGSGTDFTLKISRVEAEDVGVYYCSQNTHVPPTFGQGTKVEIERTVAAPSVFIFPPSDEQLKSGTASVVCLLNNFYPREAKVQWKVDNALQSGNSQESVTEQDSKDSTYSLSSTLTLSKADYEKHKVYACEVTHQGLSSPVTKSFNRGEC
103 % of control	GpH7-A5/GpH7-B3 variant A327_03V/GpL16-k0 (antibody, human IgG1, kappa, heterodimerized; also called He Ab A327_03V) heavy 1: not shown heavy 2: not shown light: DIVMTQSPLSLPVTPGEPASISCQASESLVHSNRNTYLHWYLQKPGQSPQLLIYKVSNRFSGVPDRFSGSGSGTDFTLKISRVEAEDVGVYYCSQNTHVPPTFGQGTKVEIERTVAAPSVFIFPPSDEQLKSGTASVVCLLNNFYPREAKVQWKVDNALQSGNSQESVTEQDSKDSTYSLSSTLTLSKADYEKHKVYACEVTHQGLSSPVTKSFNRGEC
107 % of control	GpH7-A5/GpH7-B3 variant A330_08L/GpL16-k0 (antibody, human IgG1, kappa, heterodimerized; also called He Ab A330_08L; GpH7-A5/GpH7-B3-20-08L/GpL16-k0) heavy 1: not shown heavy 2: not shown light: DIVMTQSPLSLPVTPGEPASISCQASESLVHSNRNTYLHWYLQKPGQSPQLLIYKVSNRFSGVPDRFSGSGSGTDFTLKISRVEAEDVGVYYCSQNTHVPPTFGQGTKVEIERTVAAPSVFIFPPSDEQLKSGTASVVCLLNNFYPREAKVQWKVDNALQSGNSQESVTEQDSKDSTYSLSSTLTLSKADYEKHKVYACEVTHQGLSSPVTKSFNRGEC
104 % of control	GpH7-A5/GpH7-B3 variant E269_02A/GpL16-k0 (antibody, human IgG1, kappa, heterodimerized; also called He Ab E269_02A) heavy 1: not shown heavy 2: not shown light: DIVMTQSPLSLPVTPGEPASISCQASESLVHSNRNTYLHWYLQKPGQSPQLLIYKVSNRFSGVPDRFSGSGSGTDFTLKISRVEAEDVGVYYCSQNTHVPPTFGQGTKVEIERTVAAPSVFIFPPSDEQLKSGTASVVCLLNNFYPREAKVQWKVDNALQSGNSQESVTEQDSKDSTYSLSSTLTLSKADYEKHKVYACEVTHQGLSSPVTKSFNRGEC
101 % of control	GpH7-A5/GpH7-B3 variant A330_05P/GpL16-k0 (antibody, human IgG1, kappa, heterodimerized; also called He Ab A330_05P) heavy 1: not shown heavy 2: not shown light: DIVMTQSPLSLPVTPGEPASISCQASESLVHSNRNTYLHWYLQKPGQSPQLLIYKVSNRFSGVPDRFSGSGSGTDFTLKISRVEAEDVGVYYCSQNTHVPPTFGQGTKVEIERTVAAPSVFIFPPSDEQLKSGTASVVCLLNNFYPREAKVQWKVDNALQSGNSQESVTEQDSKDSTYSLSSTLTLSKADYEKHKVYACEVTHQGLSSPVTKSFNRGEC
105 % of control	GpH7-A5/GpH7-B3 variant A330_14T/GpL16-k0 (antibody, human IgG1, kappa, heterodimerized; also called He Ab A330_14T) heavy 1: not shown heavy 2: not shown light: DIVMTQSPLSLPVTPGEPASISCQASESLVHSNRNTYLHWYLQKPGQSPQLLIYKVSNRFSGVPDRFSGSGSGTDFTLKISRVEAEDVGVYYCSQNTHVPPTFGQGTKVEIERTVAAPSVFIFPPSDEQLKSGTASVVCLLNNFYPREAKVQWKVDNALQSGNSQESVTEQDSKDSTYSLSSTLTLSKADYEKHKVYACEVTHQGLSSPVTKSFNRGEC
102 % of control	GpH7-A5/GpH7-B3 variant A327_13S/GpL16-k0 (antibody, human IgG1, kappa, heterodimerized; also called He Ab A327_13S) heavy 1: not shown heavy 2: not shown light: DIVMTQSPLSLPVTPGEPASISCQASESLVHSNRNTYLHWYLQKPGQSPQLLIYKVSNRFSGVPDRFSGSGSGTDFTLKISRVEAEDVGVYYCSQNTHVPPTFGQGTKVEIERTVAAPSVFIFPPSDEQLKSGTASVVCLLNNFYPREAKVQWKVDNALQSGNSQESVTEQDSKDSTYSLSSTLTLSKADYEKHKVYACEVTHQGLSSPVTKSFNRGEC
